Data reported in publication doi:10.1101/2020.09.22.308338 (bioRxiv, 2020).

Experiments:
[1] = target: T1, SARS-CoV-2 spike receptor-binding domain (RBD) (SARS-CoV-2, UniProt P0DTC2, biotin (biotinylated RBD in the BLI experiments only)); assay: BLI
[2] = target: T1, SARS-CoV-2 spike receptor-binding …; assay: bead-based multiplex ACE2 competition assay

B1: nanobody NM1230 (VHH)
VHH: QVQLVESGGGLVRPGGSLRLSCVGSGFTFSGYAMNWYRQAPGKALELVAGISNAGDLTHYEEPMKGRVAISRANDKNTVYLQMDDLKPEDTAVYRCHAPGVRVGTGERKDVWGQGAQVTVSS
Kd [1]: 8.23 nM | IC50 [2]: 2.12 nM
